Experimental data taken from a protein production outcome set (Wang et al. 2014).

Assay: label from the status in PepcDB records
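Note: failed if final PepcDB status was selected cloned or expressed and not failed if soluble or beyond.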

Sequence | protein production
MKLKILLLTILTLGAMTVHAQKITGDWKGMLSIPQANMELELIFHITGEGADLSTTMDVPAQGATGIPVEKTSFADGKLTLSAAALQFTFKGTLSGNTIEGNVEQMGFSLPLTLQRFESKLPGNTALPSTEEELKALAALDKGNYKYKVEDYFAKPKASAFQLSPNGKYLSYMEKDDAGKRHVYVKEIATGTVKRAIEEKDELIKGYGWINDERLFFVMDKGGNENYHLFASNIDGSNTRDLTPFDGVKASILNMLKEQKDYMIISMNKNNPQIFEPYKLNVVTGELTQLYENKDAANPIQGYEFDKDGELRGYSRLVNGIESELYYKDLATGEFRLLKKTHWDDTFGVIAFNYASKNKDEAYVLTNLDSDKTRIVLYDLKQNKIIREIFANEDYDVSGLHLSRKRNYEIDLMAYEGEKSVVVPVSATYKELHKLMEKEFKGKEFSVVDYDDDETILLIAVQSDKLYGTYYQFDTRTKKFTLLYDLMPQLKEEDMAEMRPIKFKSRDGLTIHGFITLPKAALEGKKVPLIVNPHGGPQGIRDSWGFNPETQLFASRGYATLQVNFRISGGYGKEFLRAGFKQIGRKAMDDVEDGVRYAISQGWVDPDRIAIYGASHGGYATLMGLVKTPDLYACGVDYVGVSNIYTFFDSFPEYWKPFKEMVKEIWYDLDNPEEAAIAKEVSPFFQIDKINKPLFVVQGANDPRVNINESDQIVTALRARGFEVPYMVKYNEGHGFHREENSMELYRAMLGFFAKHLKK | failed
MKLLLALMLFMTFFAHAADPEPGSQYLQAAEAGDRRAQYFLADSWLSYGDLNKAEYWAQKAADSGDADACALLAQIKITNPVSLDYPDAKKLAEKAANAGSKVGEITLARILVNTQAGRPDYPKAISLLQKASEDLDNDSAVDAQMLLGLIYANGVGIAADDEKAAWYFKRSSAISRTGYSEYWAGMMFLNGEPGFIEKNKQKALHWLNLSCLEGFDTGCEEFETLTNG | failed
MKLLLVGEVRDGRVTAETAELFGFAACFSAEVSMVLAGSTDDLPSFEGKLYRADGVNAFDLACHKRLVLAAVEREQPDAVVFLHSSHGWELAPRVAFAMQSAQVSGVVGLDDGGYVVESCNGKMRRTVKPLTDRVVLTLQLGAFDAPAMAGIPEVTALDVEPDSTIEFLDCVQPERGIDLTRAGVIVSAGRGVGSAERVELVRALADALGGEVGASRPVVDAGWLERARQVGSSGQSVSPALYVACGISGAIQHLAGMKGSGFVLAINTDRDTPITSVADVLAVADVAEFLSALTAAIRARR | failed
MKLLREMLIVVFIYFLGEFISKSFIHSVPGNIIGMLILLVLLCTKVVKVESIDCVAQFFLDHLAFFFVPAGVGLMTSVGLLEGNVLKLLFICIASTFVVIGVTGLVVQALIRRKEKKLLGDEVNE | failed
MKLLVVDDSSTMRRIIKNTLSRLGYEDVLEAEHGVEAWEKLDANADTKVLITDWNMPEMNGLDLVKKVRSDSRFKEIPIIMITTEGGKAEVITALKAGVNNYIVKPFTPQVLKEKLEVVLGTND | failed
MKLMDVHVLFSGGKDSSLSAVILKKLGYNPHLITINFGVIPSYKLAEETAKILGFKHKVITLDRKIVEKAADMIIEHKYPGPAIQYVHKTVLEILADEYSILADGTRRDDRVPKLSYSEIQSLEMRKNIQYITPLMGFGYKTLRHLASEFFILEEIKSGTKLSSDYEAEIRHILKERGESPEKYFPEHKQTRVVGLKKEI | not failed
MKLPHALSHWFPHKYAIDAKRLGDERTLAWSNLGYWADTSDYKTACRQLADGLADAVQLSSTDRLLDLGCGQGASLQHWVEHYQIQSLCAVELQLDHVKRIQHAFPQLEKMIQGSFLDLRPDTFKPHFDVVMCIDAAYHSALTSFLTAVGSVLKSKGRLGFHYLLLSEKWTQLPVWQRQKYKYLLKAADVELDDLADVTTTEHTLRAQGFDQIQIVDMTTDVFGGFARYMASRPYHSKQNIDERKIRATAKLCQYLCDQGIVRYVQIAATKQ | failed
MKLPKALNEATAGAALKYHIKRALERSHSISDFSKNLELSTQKSHFSNNTLKIIEELNNGVKQASEEIKEKARDFSNQKLTNEQIKDLLNNAEIPTSGRDAITFGVNNLNPEIVEFLHKNNKKMIIEKASNKELELLKDANFKHPENIRASLDHDAIAHILKRHGVNSVNVRNGEIPITNEDIANYRYIVNNADAILRTLDNENKELISAFKQINGYAVVVEQAINKKNELVLKTMYKSKGDYKDNNAYKKFSSTHTLNADAKVNHRLSSYSGATENTTQKDLIDQENLLKTSENLNESTPKPTNLSPLEQANAEKLAKLESEKLESEKEFLKAKEQEATRKAALKKKLEHERGNAGNIESQTKIEVGEDIPTQTQAQLPKSRVRLNEREIYDLDYAIVKAKDLKPSFTTGGTQKRTDMNEEQIKSIAENFDPKKIFGSGGFEDLPIILHDGQVIAGNHRIQGMLNFTPKSRFSYERAIKEYYHIDLKPDELLVRVPHKRLNNTEINNLAASSNQGRFNSESDHAIAVLSHYEAKLKELDQKLDADSIYSLKNIVAKNLNFDKATHPNVTDSNLALLMFNMPRTKTQGIELLNRWKKEFSNDIKSYEKVKKMFVDNAGSFHNLIHDLNFPKVSLNAYLSDIMDRSFANLKNYQSTSESLKDLSEKFYKTSSLEMFEKSDQSTSDISEILGGAIARFARFDDPSKALFEALRSDNIKKGLKDYKIADVTKDMFNADSKEFKDIDIYDFTHYLLMVNREPNENNPILKRLIEAVKDMQKESEKGIKQKLETPSEWGHNYSEFKGDGLGAINKLLETKKGFVAGAFHKEGLGDIDLVYGNSKYGLEHIFNRRESDAIDKGMSKEEAKKYALKIINNIPNIISNGKLSKDNLGRLSIEFENQRVGLNDSWKGETLNNRWVITSYEIDKSRNGLIESPLAPNYKGKDTNPLNLDSPNPTTKN | failed
MKLSSNNAETMESLRSERNQYRILVDITNSVLAHLDMDGLISEVSKEIHRFFGLNHISLMLCRTSSQNSHEGILYSSRYQTGKSVIRQQRKFSSANNKAEEIIHQNKPVLIDINKEDQDDVLIKRLVKQNMQTALLLPLAFNRKPLGLLILAHEISSVFTEETCQLLQQIAARIGIAIENAAAYEEITHLKDS | failed
MKLTLRKKLLEKVENTTETPMLILSVVYVVVALLPDIAVLSPDDLEFLDGLLWIVWGIFATELLVKIFVSPKPLQYMMQNWPDVLIVAMPFLRPLRFLRILLVLPKAWRQTKSVLRQKTFSFIGLTSLSTVLLSAAFVYLVEKGTPSPINSYADALWWAMSTITTVGYGDMYPVTGFGRGVAVFLMLTGITLFGLLTASVASFFVEDDTAKQDHLSLNLLLEKNQQLETQLNQLVETQQPRKRFHLASYRRQLAERETVRKNQKPKRRRIKLPSQDNRNA | failed
MKLTPKELDKLMLHYAGELAKKRKEKGIKLNYVEAVALISAHIMEEARAGKKTAAELMQEGRTLLKPDDVMDGVASMIHEVGIEAMFPDGTKLVTVHTPIEANGKLVPGELFLKNEDITINEGKKAVSVKVKNVGDRPVQIGSHFHFFEVNRCLDFDREKTFGKRLDIASGTAVRFEPGEEKSVELIDIGGNRRIFGFNALVDRQADNESKKIALHRAKERGFHGAKSDDNYVKTIKE | failed
MKLVEHYIMRGTRRLVLIIVGFLIFIFASYSAQRYLTEAANGTLALDVVLDIVFYKVLIALEMLLPVGLYVSVGVTLGQMYTDSEITAISAAGGSPGRLYKAVLYLAIPLSIFVTLLSMYGRPWAYAQIYQLEQQSQSELDVRQLRAKKFNTNDNGRMILSQTVDQDNNRLTDALIYTSTANRTRIFRAGSVDVVDPSPEKPTVMLHNGTAYLLDHQGRDDNEQIYRNLQLHLNPLDQSPNVKRKAKSVTELARSAFPADHAELQWRQSRGLTALLMALLAISLSRVKPRQGRFSTLLPLTLLFIAIFYGGDVCRTLVANGAIPLIPGLWLVPGLMLMGLLILVARDFSLLQKFSR | failed
MKLVTYNIQYGIGLDGQYDVARIADAVRGADVVALQEVTRNNPRNGGRDMVAEIGEALPDYFAVYGSNFEANIGSRIENGRAITTTFQLGNMMLSKTPIHLSRNLLLPRSRSFEMMNFQRGALEALIETPLGFIRFYSIHLDHRSPVERASQIQFLRRRLLNYALEGGALSGVAEIGLPELPHPEAFVAMGDFNMLAGSPEYVELAGRPDHQFGMPLTADFAVDAAVRLNVTGDDLASWVDPKDPANTSRHKRIDYVFTSASPARSLQHLWVDHQATGSDHLPVWAELG | failed
MKMDTGALTFQQKIYWLVKQIPLGRVATYGQIAALCGWPRHGRYVGYALYRVAPNSDIPWHRVVNAQGKISYAPQRRGTDELQRWRLAAEGIIFTAGLEHHHHHH | failed
MKMEARQKQNSFTSKMQKIVNHRAFTFTVIALILFNALIVGIETYPRIYADHKWLFYRIDLVLLWIFTIEIAMRFLASNPKSAFFRSSWNWFDFLIVAAGHIFAGAQFVTVLRILRVLRVLRAISVVPSLRRLVDALVMTIPALGNILILMSIFFYIFAVIGTMLFQHVSPEYFGNLQLSLLTLFQVVTLESWASGVMRPIFAEVPWSWLYFVSFVLIGTFIIFNLFIGVIVNNVEKAELTDNEEDGEADGLKQEISALRKDVAELKSLLKQSK | failed
MKMKHAFGPIILACVLFFIIILIPSKSLVSLISDKKVEDAATSLQKEKLQSVFLQQKMLENSQYLPMYGSSEFLRMDAYHPSNYFKVNPAGFTPYLIGIGGTQSLAHILNMTSTIDELEGKKVVFVLSPQWFTKTGVSQGDFTNNFSKQQAYHFIFNDKMNVEMKKQIAKRLLDYKVVQEDDILKNSLEGIVYNDTKHNIKAGLVKPLAYMHRNILDHRDLFNSIFKIEPMKEKTNVGLRSISWVDARKHAEEEGKAESTTNTFGIENPYYYKHNLKKKLKGLKNFRVNESYEESPEYDDLQIVLNIFKEKNVKPLFISVPVNGPWYDYAGFPKERREVYYKKVREQVEKAGYPVVDFSGHEYDKYFLKDTIHLGWKGWIYFDEAVQNFYNEKLEHHHHHH | failed
MKMMDANEIISFIQKSEKKTPVKVYIKGDLKEVTFPETVQAFVNKKSGVLFGEWSEIKTILDENSKYIVDYVVENDRRNSAIPMLDLKGIKARIEPGAIIRDHVEIGDNAVIMMNATINIGAVIGEGSMIDMNAVLGGRATVGKNCHVGAGAVLAGVIEPPSAKPVIVEDDVVIGANVVVLEGVTVGKGAVVAAGAVVTEDVPPYTVVAGTPARVIKEIDEKTKAKTEIKQELRQLNPEK | failed
MKMMDANEIISFIQNSTKSTPVKVYVKGELEGINFGESAKAFINGNTGVVFGEWSEIQTAIEENQSKIEDYVVENDRRNSAIPMLDLKNIKARIEPGAIIRDQVEIGDNAVIMMGASINIGSVIGEGTMIDMNVVLGGRATVGKNCHIGAGSVLAGVIEPPSAKPVVIEDDVVIGANAVVLEGVTVGKGPVVAAGAIVVNDVEPYTVVAGTPAKKIKDIDEKTKGKTEIKQELRQL | not failed
MKMVDELKGNLNSFLILLGIFSFLQFSFKQSFMFPSILPLNIPDSNLLLVIGNISFYFFFVFLLIVSMILSLTYKSLIPLTIILTISPFITLIPNYENSFLLYSLEIAILILGLASTIEGLIKSSLLSILLIPTLVLVNLGIYASILLNIFHNALFISYLTIYLISIAGYLAYVISWGKIKSLRNYIAISVGLLSMIPFIFFENIISHNRYLEILMNMILPSTLGITLYNPYHITLLVMALGLSTMGIVTSLIKGNVSSGVGYFLIITTVFLGIDGFSLLIYMLTPIIGFLVITSSEIESKRRLIDIISPTRNG | failed
MKNAFLYFLLYYRMLTTYYEWFVIVCFPQIRKICCYNEDTKTNAMEAIMKKLIGIATAAVFGLGIFTSSANAETVVTTDVLNVRENPTTESKVVGKLLNGNKIDVQNTENGWSKITLDGKDAFVSAEFTKSIYYVTANVLNVRAEANTNSEILGTLKKDDMIETTNQVQNEWLQFEYNGKTAYVHVPFLTGTAPVIEKQEQPAPAKAQAPAQAPAAQAKQAAKPAVKAAETNTPSGGRELTVVATAYTAHPSENGGTYGGRVLTAMGHDLTANPNMKMIAVDPKVIPLGSKVWVEGYGEAIAGDTGGAIKGNRIDILLGSDSAAQKWGRKTVKVKILK | failed
